From US20170334947A1 come the findings set out here.

The target in assay [1] is Fab fragment of anti-TNFα monoclonal antibody (generic name: Adalimumab) (humanized monoclonal IgG product (filing's words)). The assay is described as follows: affinity chromatography, ligand […]-gel.
Assay [2] has the same target. The assay is described as follows: affinity chromatography, ligand 2.0 mg/mL-gel.
Assay [3] has the same target. In words: affinity chromatography, Fab kept after 40 CV wash, ligand 2.0 mg/mL-gel, 5.2 mg Fab loaded.
For assay [4] the target is unchanged. The assay is described as follows: affinity chromatography, 55% DBC divided by immobilised ligand, 2.0 mg/mL-gel.
The target is the same in assay [5]. In words: affinity chromatography, Fab kept after 40 CV wash, ligand […]-gel, 10.5 mg Fab loaded.
For assay [6] the target is unchanged. The assay is described as follows: affinity chromatography, Fab kept after 40 CV wash, ligand 2.0 mg/mL-gel, 4.8 mg Fab loaded.
For assay [7] the target is unchanged. In words: affinity chromatography, Protein-G Sepharose FF.

For Pep-SpGβ1-Wild.2dC, the figures for the 55% DBC in assay [1] and in assay [2] were 21 mg/mL-gel and 10.4 mg/mL-gel, respectively. For the same substance, the Recovery rate is 28% in assay [3] and 43% in assay [5]. In assay [4], the Binding capacity per ligand density turned out to be 5.2.
Consider “Protein G ligand of the commercial carrier HiTrap Protein-G HP (GE Healthcare)”, for which the 55% DBC in assay [2] came out at 9.7 mg/mL-gel. In assay [6], the Recovery rate is 6%.
In assay [7], “Protein G ligand of the commercial carrier Protein-G Sepharose FF (GE Healthcare)” returned a 55% DBC of 6.2 mg/mL-gel.
